{"source": "paper PMC12871931", "about": "“The importin‐alpha superfamily engages in ethylene signaling by shuttling ETHYLENE INSENSITIVE 2 from the endoplasmic reticulum to the nucleus” (The Febs Journal, 2025)", "target": "TAMRA‐NOP‐1 (EIN2 NLS peptide, N‐terminally labeled with 5‐TAMRA) (Arabidopsis thaliana)", "experiment": "fluorescence polarisation; direct titration: TAMRA-NOP-1 constant at 250 nM, IMPα protein concentration varied; 50 μL samples; LS55 spectrometer; Kd by Logistic Fit in Origin; three independent measurements", "data": [{"substance": "IMPα7_ΔIBB (importin α7 lacking the N-terminal importin β binding domain), Arabidopsis thaliana, recombinant (domain or fragment)", "values": [{"measurement": "Kd", "result": 3, "unit": "µM"}]}, {"substance": "ΔIBB_IMPα1 (importin α1 lacking the IBB domain), Arabidopsis thaliana, recombinant (domain or fragment)", "values": [{"measurement": "Kd", "result": 3.2, "unit": "µM"}]}]}
